The target of the assay is T1, COPB2_(1-304), N-terminal WD-repeat domain of the COPB2 coatomer subunit (S. cerevisiae, UniProt P41811 1-304).
T1 sequence: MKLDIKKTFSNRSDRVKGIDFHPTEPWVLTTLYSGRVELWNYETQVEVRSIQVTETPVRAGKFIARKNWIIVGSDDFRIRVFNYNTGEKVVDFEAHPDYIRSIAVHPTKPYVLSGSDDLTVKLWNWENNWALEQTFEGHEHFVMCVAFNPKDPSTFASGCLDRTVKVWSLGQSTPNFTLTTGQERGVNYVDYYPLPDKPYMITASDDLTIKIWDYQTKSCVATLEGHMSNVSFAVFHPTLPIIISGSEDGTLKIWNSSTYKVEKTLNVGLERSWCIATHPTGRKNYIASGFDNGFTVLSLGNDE
The assay is described as follows: ITC. (In general: Isothermal titration calorimetry measures the heat released or taken up as one component is titrated into another.)

By Kd is commonly meant the equilibrium constant for the complex coming apart. Higher therefore signals weaker binding.

Regarding PVRASRNKRPTFLKIKKP [Exosome Binding Peptide (EBP) of Wnt7a, 18 aa polypeptide (240-257)], the Kd came out at 11.6 µM. In the case of LKIKKP [Wnt_(252-257) peptide (LKIKKP), C-terminal half of the EBP] it was 37.2 µM.

The record behind these values is article doi:10.1101/2023.05.30.542914 (bioRxiv, 2023).
